According to IntAct's records for PubMed 20062059:

B1: Exocyst complex component SEC3 (Saccharomyces cerevisiae), P33332 (parent)
chain: MRSSKSPFKRKSHSRETSHDENTSFFHKRTISGSSAHHSRNVSQGAVPSSAPPVSGGNYSHKRNVSRASNSSQTSNFLAEQYERDRKAIINCCFSRPDHKTGEPPNNYITHVRIIEDSKFPSSRPPPDSKLENKKKRLLILSAKPNNAKLIQIHKARENSDGSFQIGRTWQLTELVRVEKDLEISEGFILTMSKKYYWETNSAKERTVFIKSLITLYIQTFEGHVPELVNWDLSLFYLDERSYQRAVITNRPGSVSPIKSPTSNFTTNTTQSVGSVPFSAPTERTRRSETESVNPVSTPASVEYHAGMKSLNKAPYSSNSTLNEVNKRYELEQQQQQEEAELRRLEEQKRLQLQKENEMKRLEEERRIKQEERKRQMELEHQRQLEEEERKRQMELEAKKQMELKRQRQFEEEQRLKKERELLEIQRKQREQETAERLKKEEQEALAKKEEEEKSKRNKVDNESYTQEINGKVDNLLEDLNAVLAEETETTPTMQNGTYVPERSTARAHDQLKKPLNIAKVESLGGSDLNDSISLSDEIAGLNTSNLSGEDQDEKNDLSFEKGDEVRYSNNFEGEAPHVYHEVSIIQEEAPAVSQKLILPEENNESEALIESKEEIKTMENIDDEVLLEILTDINWSIEDDADSMIERIDLRLAETEYLFNQNLLSLQKIGPNIRPYEDKVNDECHRIIPTLSLFLMEMSNFSNDIENVESQDNGLQVESANKKLLWNTLDELLKTVSLDEISLNQLLECPIREKNLPWMENQLNLLLKAFQAIGSDGNEVEYNLREISGLKQRLQFYEKVTKIFLNRIVEEMQKKFSNIRGQDISHDQMIRILTTLLIFSPLILFCKEISQKSYQAIVENWNVSIQPVYMELWTKKISQLQGIDTNDEKMNELSLSQLLNEWDTFRKERKTNDINPVFKNSFSLLTECLQTMRQECIVYQNFVEVFFHISSKHNFEEYIKHFNDPDAPPILLDTVKVMQSDREAAVIETQLVSRIFQPIVTRLSSYFVELVKAEPTVAPALTFYLENEIKSLESSNHEFLLSAVTRMYTQIKQVWSDNVEEQVLHFERISNATTNGEILPGILDLPVGLKNSEDLFQFAKRSMDIKDTDEGYESIELMNSSFRKLSIAATRSITHKEVNSSINPNLSDTAALNNDYMETISLLVNSNWLTEMLSMLNFNKDGIFDTSLQNVKKVFDVEKESYASFLLRDTMPKLTAFVYGVSNIIENTNNVNMTNPSRWAAYSRQNLENILLAYTSHEIETLVKRLHTHMVNDFGYHQENAINNVLCDKLWSCIQGQTVSLYLKLYTVIDKHYRGTNIRFTKNDIISAFEEYKNA

Variants of: B1
Details: with rho1_yeast RHO1, P06780
rho1_yeast RHO1, P06780, sequence (P06780 whole entry): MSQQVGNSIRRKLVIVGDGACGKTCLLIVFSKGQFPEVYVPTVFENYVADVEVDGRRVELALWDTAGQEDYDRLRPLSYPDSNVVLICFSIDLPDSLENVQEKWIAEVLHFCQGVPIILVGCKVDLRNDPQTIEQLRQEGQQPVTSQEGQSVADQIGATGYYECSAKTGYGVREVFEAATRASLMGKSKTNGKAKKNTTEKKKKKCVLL

Variant	effect of a mutation on the interaction
K136A	disrupting interaction
E199A	disrupting interaction
L131A	disrupting interaction
